# Reference: US20060148683A1, “Detection and treatment of intravascular lesions” (priority 2001, published 2006)
# Tested on: thrombus
# Assay: Treatment of a thrombus in guinea pig inferior vena cava monitored by catheter fluorescence detection
# Assay type: in vivo
# Conditions: guinea pig IVC thrombus; tPA delivered through the catheter after optical agent 0.02 μmol/kg
# Protocol: A guinea pig (Harley, male) is anaesthetized. […] The vessel is allowed to recover for 10 mins. A 1 cm portion of the IVC is clamped and human thrombin (50 μL, 4 units) is injected into the vessel to promote thrombus formation. The lower clamp is opened and closed to allow partial blood flow to the segment. After 2-3 mins., the clips are removed. The thrombus is allowed to age in the animal for 30 mins. At this point, the optical agent is administered at a dose of 0.02 μmol/kg, via injection into the jugular vein. After 30 mins., a catheter with an optical fluorescence detector is inserted into the IVC and the thrombus visualized by detecting the fluorescence signal emitted by the fibrin-optical agent complexes on the thrombus. […] TNKASE™ (Tenecteplase) is a commercially approved tissue plasminogen activator (tPA) produced by recombinant DNA technology and sold by Genetech. The drug is administered intravenously at a dose of 30-50 mg, depending on patient weight.
molecule,measurement,value
"Tissue plasminogen activator (protein, UniProt P00750 36-562, looked up, thrombolytic) Tissue-type plasminogen …: SYQVICRDEKTQMIYQQHQSWLRPVLRSNRVEYCWCNSGRAQCHSVPVKSCSEPRCFNGGTCQQALYFSDFVCQCPEGFAGKCCEIDTRATCYEDQGISYRGTWSTAESGAECTNWNSSALAQKPYSGRRPDAIRLGLGNHNYCRNPDRDSKPWCYVFKAGKYSSEFCSTPACSEGNSDCYFGNGSAYRGTHSLTESGASCLPWNSMILIGKVYTAQNPSAQALGLGKHNYCRNPDGDAKPWCHVLKNRRLTWEYCDVPSCSTCGLRQYSQPQFRIKGGLFADIASHPWQAAIFAKHRRSPGERFLCGGILISSCWILSAAHCFQERFPPHHLTVILGRTYRVVPGEEEQKFEVEKYIVHKEFDDDTYDNDIALLQLKSDSSRCAQESSVVRTVCLPPADLQLPDWTECELSGYGKHEALSPFYSERLKEAHVRLYPSSRCTSQHLLNRTVTDNMLCAGDTRSGGPQANLHDACQGDSGGPLVCLNDGRMTLVGIISWGLGCGQKDVPGVYTKVTNYLDWIRDNMRP",Optical fluorescence signal of fibrin-optical agent complexes on thrombus (clot dissolution and lysis),optical fluorescence signal decreases
